According to article PMC7855269 (FASEB journal : official publication of the Federation of …, 2020):

Target: FLAG-WT CFTR (cystic fibrosis transmembrane conductance regulator) (UniProt P13569 1-1480)
Experiment: pull-down

FLAG-WT CFTR (cystic fibrosis transmembrane conductance regulator), sequence (P13569 whole entry): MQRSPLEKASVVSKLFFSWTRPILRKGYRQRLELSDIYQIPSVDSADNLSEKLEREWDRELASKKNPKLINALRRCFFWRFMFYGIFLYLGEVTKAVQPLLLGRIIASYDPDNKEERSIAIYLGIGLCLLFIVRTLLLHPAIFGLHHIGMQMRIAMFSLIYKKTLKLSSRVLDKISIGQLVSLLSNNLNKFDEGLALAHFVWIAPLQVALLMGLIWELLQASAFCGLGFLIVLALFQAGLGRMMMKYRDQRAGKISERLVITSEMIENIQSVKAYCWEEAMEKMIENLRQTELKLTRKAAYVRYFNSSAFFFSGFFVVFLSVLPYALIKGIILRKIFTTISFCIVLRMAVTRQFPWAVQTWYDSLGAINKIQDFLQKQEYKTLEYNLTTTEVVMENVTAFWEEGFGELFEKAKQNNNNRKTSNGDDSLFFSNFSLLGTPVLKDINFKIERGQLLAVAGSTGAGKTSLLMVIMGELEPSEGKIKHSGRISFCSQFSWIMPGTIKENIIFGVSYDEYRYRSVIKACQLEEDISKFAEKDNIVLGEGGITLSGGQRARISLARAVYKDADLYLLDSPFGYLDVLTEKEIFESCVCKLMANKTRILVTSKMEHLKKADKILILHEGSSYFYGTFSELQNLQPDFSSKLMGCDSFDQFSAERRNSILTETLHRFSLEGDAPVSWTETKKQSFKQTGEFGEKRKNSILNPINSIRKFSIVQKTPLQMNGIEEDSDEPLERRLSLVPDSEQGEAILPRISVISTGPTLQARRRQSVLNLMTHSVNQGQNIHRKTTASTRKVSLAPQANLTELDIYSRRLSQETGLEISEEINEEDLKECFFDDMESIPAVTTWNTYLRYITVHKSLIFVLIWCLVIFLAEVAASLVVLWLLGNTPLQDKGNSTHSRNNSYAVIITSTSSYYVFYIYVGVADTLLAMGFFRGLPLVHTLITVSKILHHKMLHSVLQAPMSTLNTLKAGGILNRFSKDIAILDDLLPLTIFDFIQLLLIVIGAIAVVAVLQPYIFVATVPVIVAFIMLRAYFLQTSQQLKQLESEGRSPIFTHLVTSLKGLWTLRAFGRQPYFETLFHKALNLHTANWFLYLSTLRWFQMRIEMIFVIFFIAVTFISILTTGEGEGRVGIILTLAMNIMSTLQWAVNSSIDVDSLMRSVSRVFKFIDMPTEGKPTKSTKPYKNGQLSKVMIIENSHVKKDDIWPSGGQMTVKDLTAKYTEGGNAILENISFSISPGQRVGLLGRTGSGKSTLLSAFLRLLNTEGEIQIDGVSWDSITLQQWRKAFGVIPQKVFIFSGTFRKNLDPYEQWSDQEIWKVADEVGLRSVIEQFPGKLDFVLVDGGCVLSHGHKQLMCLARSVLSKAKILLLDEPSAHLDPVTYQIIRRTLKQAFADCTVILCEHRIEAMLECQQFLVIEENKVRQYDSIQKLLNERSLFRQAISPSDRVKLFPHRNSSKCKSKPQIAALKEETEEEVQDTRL

binding result: binds
B1: GST-His-S-Stx17ΔC (Stx17 1–228) (domain or fragment, UniProt P56962 1-228, looked up)
chain: MSEDEEKVKLRRLEPAIQKFIKIVIPTDLERLRKHQINIEKYQRCRIWDKLHEEHINAGRTVQQLRSNIREIEKLCLKVRKDDLVLLKRMIDPVKEEASAATAEFLQLHLESVEELKKQFNDEETLLQPPLTRSMTVGGAFHTTEAEASSQSLTQIYALPEIPQDQNAAESWETLEADLIELSQLVTDFSLLVNSQQEKIDSIADHVNSAAVNVEEGTKNLGKAAKYK
